Measured values published in paper doi:10.1101/2025.07.29.667540.

Tests used:
CyPet-Ubc9 = CyPet-Ubc9 (UniProt P63279); experiment: FRET or BRET
[1] = target: CyPet-NS1 (influenza A virus) (UniProt P03496); experiment: FRET or BRET
Sequence of UniProt P03496 (P03496 whole entry): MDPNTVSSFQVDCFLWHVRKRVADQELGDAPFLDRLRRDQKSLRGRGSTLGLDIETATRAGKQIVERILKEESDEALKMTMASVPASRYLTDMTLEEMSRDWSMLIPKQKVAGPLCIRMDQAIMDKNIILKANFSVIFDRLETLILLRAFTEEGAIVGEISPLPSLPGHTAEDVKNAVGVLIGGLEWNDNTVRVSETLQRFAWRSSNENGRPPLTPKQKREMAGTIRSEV

Sequence of UniProt P63279 (P63279 whole entry): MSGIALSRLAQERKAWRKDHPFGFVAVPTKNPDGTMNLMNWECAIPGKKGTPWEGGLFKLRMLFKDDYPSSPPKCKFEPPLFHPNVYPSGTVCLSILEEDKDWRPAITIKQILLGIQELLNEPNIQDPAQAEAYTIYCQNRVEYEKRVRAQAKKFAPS

Substance | Kd (CyPet-Ubc9) [µM] | Kd [1] [µM]
YPet-NS1 (from UniProt P03496 1-230) (natural protein) | 4.84 | 
YPet-PIAS1 (from UniProt O75925 1-651) (enzyme) |  | 2.96
